The record followed here is the DeepSol protein solubility set.

The series in a line: soluble on expression in E. coli; label from the status in PepcDB or PDB records.
Turning to “AGMDVRESISLQNQVSMNLAKHVITTVSQNSNVIFSPASINVVLSIIAAGSAGATKDQILSFLKFSSTDQLNSFSSEIVSAVLADGSANGGPKLSVANGAWIDKSLSFKPSFKQLLEDSYKAASNQADFQSKAVEVIAEVNSWAEKETNGLITEVLPEGSADSMTKLIFANALYFKGTWNEKFDESLTQEGEFHLLDGNKVTAPFMTSKKKQYVSAYDGFKVLGLPYLQGQDKRQFSMYFYLPDANNGLSDLLDKIVSTPGFLDNHIPRRQVKVREFKIPKFKFSFGFDASNVLKGLGLTSPFSGEEGLTEMVESPEMGKNLCVSNIFHKACIEVNEEGTEAAAASAGVIKLRGLLMEEDEIDFVADHPFLLVVTENITGVVLFIGQVVDPLH”, the “soluble on expression in E. coli” value is recorded as “soluble”.
As for “MIAGATAPSSQHEILIASNLIKKPSTSQNKTPTAQSSSGNNGAADGAPQGYHHHHHHHRHLWWPRTTDHQYWCVLRKNQFAYYKTRDEREAISVIPRFDILNFKISELDGILTVYTPSKDLIFKFPRGQNEKVGMELMHNWKIALEKFLSSPSGNESVTTGSDYDEEEDDDDLIVVDEKAGPSSSKHSCSLTMDEQLSREDKEFYRMFDPRNAEHQVCSGILYTKVKKKKLFNRAKWQKFNVELTNTSFNLYSFKTGKLKKSIKLDKIIDCIELDNNSKMKNDDTNFALITFDERLSFKAANDQDMVDWIINFKSGILIRKKLKAENI”, the entry is “soluble”.
“MKLKNTLLASALLSAAAFSVHAATELTPEQAAALKPYDRIVITGRFNAIGDAVSAVSRRADKEGAASFYVVDTSEFGNSGNWRVVADVYKADAPKADAPKNRVINGIVELPKDQAVQLEPYDTVTVQGFYRSQPEVNDAITKAAKQKGAYAFYIVRQIDANQGGNQRITAFIYKQDAKKRIVQSPDAIPADSEAGRAALAQGGEAAKKVEIPGVATSASPSAEVGRFFETQSSKGGRYTVTLPDGTKVEELNKATAAMMVPFDSVKFTGNYGNMTEISYQVAKRAAKKGAKYYHITRQWQERGNNITISADLYKLEHHHHHH”: the “soluble on expression in E. coli” value was “soluble”.
“MTLAEENLRLFEKKFAILQEISNALVVTDNISAIANLMLDLAVNYTRAEKGSLLLLNERDELFILAGRGIDLQLMRTYRARLGEGIAGIVAKGRVPILVKDIDQDSRFQGMTRDRYKTPSFISCPIVSKDRLLGLLNINDKADGTPFLDDEFSLIKIIANQAAIALENAMLVNQLR”: the “soluble on expression in E. coli” value is reported as “not soluble”.
Regarding “MEIFEKIRSLRKNHNLSQEEIADKINLSVSGYRKIENGKSRINHKRLEQIAEALEVSPLDLIPNSWRHGSSVYQVGKNGFYGDSSRAIEIELLKQQIKQEQLIKAKDETIEDKNRLISRLEEMLKILNT”, the “soluble on expression in E. coli” value is “not soluble”.
The entry for “AHHHHHHGSGKTGIEYFDNFILKDGFPDGSLILVAGEPGAGKTIFSATYLYNGAKKFGEKGVYISLAETKREFYEAMKQLGMDFEELEKKGLFRFIDLVTVSRGAIEKEIQFLMSEISSFQPKRVVIDSISVFAQILGLEKTRVFLHTMLGRFIKAYNATALLIAEKPMGSKTIGHGVEEFVVDGVIILKYKSLGEITRRVMEIPKMRRRSVERAEYEYVITKNGIEFLELPDLVRDKGEYTLEKITTGIEKLDKMLDGGYTRDQMF” is “soluble”.
As for “MGSDKIHHHHHHEAKGHQTVKIDTVVSADKQTFLQFPGKVKAAQDISLAFRVSGTISKIHVKDGARVQEGQLLAELDPTDYQVQLDATEAEYQQIKAEAERVMALYKDNGTTPNANDKAVYGLKQITAKYKHHKDQLAYTRLYAPFNGYVQKRLFEAHETIGAGMPVIAMISGGTPEVEINLPAAEYIRREQFDNYHCTFDIYPGETYPLKLISVTPKANANQLYTMRLQVVPGTRAIPSPGMNTMVTILCRTEQENTLSVPTGAILQKEGKAYVFVFHPSSNTVHRQEVSILRLLNNGHSLITSRQLQPGEQIVSSGVHHIEDGEIVKPLSPVTNTNIGGLL”, the entry is “not soluble”.
As to “MASFRSTLALVNSAKLSLSTRTMASHPLAGLLGKLNHVAIATPDLKKSSEFYKGLGAKVSEAVPQPEHGVYTVFVELPNSKIELLHPFGEKSPIQAFLNKNKDGGMHHICIEVRDIHEAVSAVKTKGIRTLGEKPKIGAHGKEVMFLHPKDCGGVLIELEQE”, the “soluble on expression in E. coli” value is on record as “not soluble”.
“MGSDKIHHHHHHMSPRCSTCGMGQLCLPVGMNQQDLQKMDTLVQERVRVHKGETLYRMGDPLTAVYAIRFGTLKTHVTTEDGRSQITGFHLPGEVVGLDGLGEMQHASDATALEDTEVCVVRLSDLQSLSMDLPSLQQQFLRLMGKEISNDQLMLVTLGSMRAEERLAAFLINLSERLSARGYSSTEFVMRMSREEIGSYLGLKLETVSRLFSRFAEAGLIQIRQRHVKLVDMAGIKQVYSRSC”: the “soluble on expression in E. coli” value is on record as “not soluble”.
With “MNQINIEIAYAFPERYYLKSFQVDEGITVQTAITQSGILSQFPEIDLSTNKIGIFSRPIKLTDVLKEGDRIEIYRPLLADPKEIRRKRAAEQAAAKDKEKGA”, the “soluble on expression in E. coli” value is reported as “soluble”.
Consider “MSLGDFSELARVNGEPVYVKEYKMKLLSNTTEVINYFSQSYAVETKENFRTDSYSGEAPVEMARKKALDDIVEVKVQQILAKEKGIIESTDYREFLKELENENRQRKDALKSNKVVYGPDNYGEIEYFNYSFDNMVSKLKEKLKENELSIPEEKLESMYNLLKDTRFKLPDDIKIQVISIGFTDEKGIINDDLKSKARVKIEEAKKRIDNGEPFEEVALDYNPKSGVLEYVFTKEKQMAKDISHPELLDEALKLKPGQVSEIIERSTDFVLILCKEKKSTGYLPYKDARKQLLDELIEKDYQEYIDKLVEQADVKINEKLYRRINVNEGHHHHHH”, for which the “soluble on expression in E. coli” value is “soluble”.
As for “MGSDKIHHHHHHMKLTCMQEDLKRGLAAVGHAVAGKSTLPVLANILLATDEGRLKLTATNLEVGINRWISATITRDGAVAVPAKLLTDVVGGLPNDKVTLSLDQKTQTLRVECGRFVSNIKGVDADEFPSLPTVSAQTPLVSLPAEVWQEAIDQVAFAAATDESRPILTGVLVRTRDQQVTLVAADGFRLAMRTIQLSAPVAHAVDCLIPARTLSELARIIGDTDAEVAMVYTPGGSHVLFHTENIEVVSRLIEGRFPDFERIIPQQYLTRMVLDNSELAKAVKLASFFAGSSQNVVKLKIEPASELAPGRVVISANAAELGDNTSELDGSVTGEGGVIALNVRFLADAIAAVHSNQIAFEMQSAQSPAVFKPVGQDGYIHIVMPMSMR”, the entry is “not soluble”.
The entry for “MSLPWLHRETARSFGGAGSTAGYEQVTAYTLTGQLQSRHLNLPQLDCDYDWNDNGQLIRISGPQESREYRYSDTGRLTGVHTTAANLDIDIPYATDPAGNRLPDPELHPDSTLTAWPDNRIAEDAHYVYRYDEYGRLTEKTDRIPEGVIRMHDERTHHYHYDNQHRLVFYTRIQYGEPLVESRYLYDPLGRRTGKRVWRRERDLTGWMSLSRKPEVTWYGWDGDRLTTVQTGTTRIQTVYRPGSFTPLIRIETENGEREKAQRRSLAEKLQQEGSEDGHGVVFPAELVRMLDRLEEEIRADRVSSESRAWLAQCGLTVEQLEKQVEPEYTPARTLHLYHCDHRGLPLALISEDGNTAWSAEYDEWGNQLNEENPHHLHQPYRLPGQQHDEESGLYYNRHRYYDPLQGRYITPDPIGLRGGWNMYQYPLNPIQVIDPMGLDAIENMTSGGLIYAVSGVPGLIVANSITNSAYQFGYDMDAIVGGAHNGAADAMRYCYLMCRMTKTEGHHHHHH” is “soluble”.
As for “MSLTYPVLKGAGYVLIHTPDMIVQNGSTCTVERATNPDSEFLKEVSNHIRSYEDVVNYMPNQVYIGNRRPEELRDLPMPWCEQKIEGTRNGKFGEIMPQDEFIALMQISDAFDLVKLSQEFIDEVKPKIENNYPEIAPFVGKLKGDDIEEGKELVATHIAEGLYHDGKFVGYVKRAHDVDVNLNAHTMFENLVVKASGVLSAIQMLRHSKIDPAEIDYVIECSEEACGDINQRGGGNFAKSIAEIAGLQNATGSDTRGFCAAPTHALIQAAALVKAGIHKNVMVVAGGASAKLGMNAKDHVKKGLPVLEDVVGGFAVLVSENDGVNPVIRTDLTGKHTVGTGSSPQAVMTALITSGLDRANLKITDVDVYSVEMQNPDITKPAGAGDVPEANYKMIGALAVKRGDLEKKELKDFVSNKGLPGWAPTQGHIPSGAPYIGFLIDDLTTGNRNRAMIVGKGSLFLGRMTNLFDGVSFIAERNTGVTEETSGISKDEIKKIIAESMKKLALDMLEEGHHHHHH”, the entry is “soluble”; as for “MGSDKIHHHHHHMIKRRYMRTRQLKPGMIIDQVIKDPTGRNLVVQGSAIDDYIISSLLKLGIMSVYIREGNADPDDPDAILSPKAAAMVKQLRTDDRSKVTLSDSVRQRVSTGVQYIFNNTNSEELTQATNQIADSLMEAINENDAIAVDISSLKTSDEYTFKHSVDVATISMILAKQMKLPDNEIHDIGVSGLLHDIGKTMIPNEILNKPGRLTDDEFNIMKKHSVYGYNMLKDRKDLNNSILMGVLQHHERIDGTGYPLGFDAPKICQFAKILSVADVYDALVTKRPYKDALSQRDAVEMLMSMTNQLDIGVMRAFMSSMILYPVDSIVQLSNGEKARVVKNSEYYILRPTVVGVDSGRVYNLGNDLKCASIIIL”, “not soluble”.
In the case of “MGSDKIHHHHHHMTDKGKNDLTSKAKDKARGNPEKPPYWFEIIVSDPQKRTGDPGSSSGYVSYQISTKTNNTSFYDNRGDPESIIVVHRRYSDLLLLHDILLNRFPTCIIPPLPDKKVFQYIAGDRFSQRFTQKRCHSLQNFLRRVSLHPDLSQSKVFKTFLVSKDWESHRKVLQDSLQPNKDEVTDAFMNAFKTVHKQNEEFTEIREKSDKLDRTVTKIDKLFHKVVKKNDSMSEDYTKLGSNLQELQELVTGENEELAAKLKIFNEGVTQLSYGLQDLTKYLDYEYIVDLKDLEHYIDSMRQLIKLKDQKQIDYEELSDYLTRSIKEKNNLISGYGGSNFFANKLEELAGINQEASRREKINKLEGKITSLTGELENAKKVADGFEQECLKEIDHFESVKTAEIKKSLGSLADHHIEFYERILEAWEKVDDSL”, the “soluble on expression in E. coli” value was “not soluble”.
As for “MGSDKIHHHHHHMSTAVTFFGQHVLNRVSFLRCSKEFIKKSLNHDSTVFIPFIEGEALISPENGDLVQLSNSVKSYKNILSAIVPLYTTLLNTTRSRSDESGINVTFLGLLEGTDSAFNFEWSNISYKGTPYFGLDIRVTESTLFKKVDFEPIFSYPKVTRDHIFKQTNEDASLYSQGKMYLDWLAKYKFCPGCGSPLFPVEAGTKLQCSNENRNVYCNVRDARINNVCFPRTDPTVIIALTNSDYSKCCLARSKKRYGDFVLYSTIAGFMEPSETIEEACIREIWEETGISCKNIDIVRSQPWPYPCSLMIGCLGIVQFNSKNEVINLNHDDELLDAQWFDTTEIIQALDKYAGGYRVPFKNDINLPGSTTIAFQLINHVCENYKNLRKTSSSHL”, the “soluble on expression in E. coli” value was “not soluble”.
For “MSLRERPVIDELSKVKKLKLTGQTEALFESWRSSWDEIETRLFPDLEEVLLEAEMNTDRYKFRSATHAENDIEQMLVVIEKQMDQILGGLKELLISEEKNAKESRATKEKFAELRREVLTRGFKLGETLPYIETKLSELSESLNSYDSLTDQGDHLEAREIVIVVQKEMQVIEAQMERIPSLLHETDTILPEEMTKLRAGYEEMVRKGYYLAQMELDKEISRMKNQIDKMKKNVINLDLDEAEQGVEELHNEIDLFYDTLEHEAEARHFVKENHSPTSDKLQRQNAVSDALAEQITEVKQTYHVAEDDLAVYLKTSAKLSEAKENFEQLTALIASGEIAYSAAQDTLKEIDAALITISAEQDKFAEELRSLRKDELEARDDAERMRRAIITLDRKMERERLPGLPEEYLSLREHMGESINALEKRLEEKPLNMKAVSQDWRIAEEDLTHLTEKAEEMMENVRLVEHVIQYANRYRLRNKELADELVQAENHFYNDYQYKKALEIAVTALEKVETGAFKKVEKAYESKVSVDEGHHHHHH”, the “soluble on expression in E. coli” value was “not soluble”.
